Experimental findings from patent US12227593B2, “Site-specific conjugation of glycosylated monoclonal antibodies with transglutaminase” (Janssen Biotech, Inc., priority 2020, dated 2025) are described below.

The target in this test is T1, MTG (Streptomyces mobaraensis, UniProt P81453).
T1 construct: purchased Activa TI or Zedira
T1 sequence (P81453 77-407): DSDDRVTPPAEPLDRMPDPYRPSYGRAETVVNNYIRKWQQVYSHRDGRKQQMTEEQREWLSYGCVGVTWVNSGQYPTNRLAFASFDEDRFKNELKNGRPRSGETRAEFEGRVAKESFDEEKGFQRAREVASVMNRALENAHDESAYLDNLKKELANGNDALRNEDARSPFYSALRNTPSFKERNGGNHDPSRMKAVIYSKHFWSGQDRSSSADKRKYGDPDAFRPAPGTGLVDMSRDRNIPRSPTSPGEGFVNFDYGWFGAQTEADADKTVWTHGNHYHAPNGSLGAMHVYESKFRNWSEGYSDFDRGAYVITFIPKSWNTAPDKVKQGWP
The test is described as follows: MTG-catalyzed conjugation of 3-APA to mAbs, degree of labeling (DOL) by LC-MS. Format: biochemical, S. mobarensis. The settings on record: different IgG backgrounds, MTG and 3-APA at 37° C., per full mAb. On the procedure: To assess the suitability of the mAb variants for MTG-catalyzed conjugation, intact mAbs (1 mg/mL) were reacted with 3-azido propylamine (3-APA; 20-100-fold molar excess) and MTG (Activa TI, 5-20% w/v or Zedira, 5-20 units/mg of mAb) in PBS buffer at 22-37° C. for 30 min to overnight. Reactions were stopped by the addition of MTG blocker (Zedira) to 100 μM and analyzed by LC-MS following deglycosylation with PNGase F and reduction with dithiothreitol. The degree of labeling (DOL) was determined by mass spectrometry.
LC-MS was performed on an Agilent 1260 HPLC system connected to an Agilent G6224 MS-TOF Mass Spectrometer. LC was run on an Agilent RP-mAb C4 column (2.1×50 mm, 3.5 micron) at a flow rate of 1 mL/min with the mobile phase 0.1% formic acid in water (A) and 0.1% formic acid in acetonitrile (Sigma-Aldrich Cat #34688) (B) and a gradient of 20% B (0-2 min), 20-60% B (2-3 min), 60-80% B (3-5.5 min). The instrument was operated in positive electro-spray ionization mode and scanned from m/z 600 to 6000. Mass to charge spectrum was deconvoluted using the Maximum Entropy algorithm and DOL was estimated using relative intensities of the deconvoluted masses corresponding to intact mAb (for intact mass) or mAb heavy chain (for reduced mass) with the addition of multiples of 83 Da (corresponding to 3-APA).
Instrument settings included: capillary voltage 3500V; fragmentor 175V; skimmer 65V; gas temperature 325C; drying gas flow 5.0 L/min; nebulizer pressure 30 psig; acquisition mode range 100-7000 with 0.42 scan rate.
For the substance Pertuzumab [Pertuzumab WT], the “DOL 18 hr” value was determined as 1.2.

As to “Pertuzumab WT deglycosylated: deglycosylated WT pertuzumab”, the “DOL 18 hr” value is 2.0.

On to Panitumumab [Panitumumab WT], for which the “DOL 18 hr” value is 1.2.

Consider “Panitumumab WT deglycosylated: deglycosylated WT panitumumab”, for which the “DOL 18 hr” value stood at 2.0.
